Source: patent publication US11484607B2, “PSMA-targeted NIR dyes and their uses” (On Target Laboratories, LLC, priority 2015, dated 2022)

Legend:
[1] = tested on: PC3 tumor xenografts; test: OTL78 whole body imaging and tissue biodistribution, subcutaneous tumor; assay type: in vivo, mice; conditions: 10 nmol, 2 h
Method: (§1) Whole body Imaging & Tissue biodistribution: Seven-week-old male nu/nu mice were inoculated subcutaneously with 5.0×106 22Rv1, LNCaP, PC3 or A549 cells/mouse in 50% high concentrated matrigel with RPMI1640 medium on the shoulder. Growth of the tumors was measured in perpendicular directions every 2 days using a caliper (body weights were monitored on the same schedule), and the volumes of the tumors were calculated as 0.5×L×W2 (L=longest axis and W=axis perpendicular to L in millimeters). Once tumors reached approximately 300-400 mm3 in volume, animals (3-5 mice/group) were intravenously injected with appropriate dose of OTL78 in saline.
(§2) For whole body imaging and biodistribution studies, animals were euthanized after 2 h of administration of OTL78 by CO2 asphyxiation. For time dependent studies, animals were imaged under anesthesia using isoflurane. Imaging experiments were then performed using IVIS or AMI image systems. Following whole body imaging, animals were dissected and selected tissues were analyzed for fluorescence activity using IVIS or AMI image system and ROI of the tissues were calculated using Living Image 4.0 software or AMIView Image Analysis Software.

[2] = tested on: 22Rv1 orthotopic tumors; test: OTL78 imaging of orthotopic prostate tumors, AMI image system; assay type: in vivo, SCID mice; conditions: 10 nmol, 2 h
Method: For orthotopic tumors, 2×10^5 22Rv1 cells/mouse in 10% high concentrated (HC) matrigel with RPMI1640 medium were surgically implanted in the prostate of seven-week-old male SCID mice. Briefly, seven-week-old male SCID mice were given 1-5% isoflurane for anesthesia and subcutaneous injection of 5 mg/kg meloxicam preoperatively for analgesia. The mice were placed dorsal side up and washed above the prostate with a chlorhexidine scrub to ensure a sterile area for incision. After an insertion was made using scalpel through the skin, the peritoneal lining was lifted to make a small incision using a scissor and widened using forceps. Dorsal lobes were exteriorized and gently stabilized with a wet (PBS) cotton swab. 22Rv1 cells (in 10 μL of 10% HC-matrigel) were injected the prostate using a 28-gage needle. After placing the prostate back into the peritoneum, the abdominal wall was sutured, the body wall was closed using 3-0 or 4-0 vicryl and the skin was closed using staples. Animals were monitored until use them for the studies. After one month, the animals were administered with OTL78 (10 nmol in 100 μL saline per mouse), euthanized after 2 h by CO2 asphyxiation, and imaged using AMI image system.

[3] = tested on: basophils; test: Basophil activation test (Flow CAST) in human blood samples; assay type: cell-based
Method: Tolerability Studies: The blood samples were collected into hirudin tubes and used within an hour of collection. For each donor, 4 different tubes were prepared for allergen, positive controls, and negative control. Samples were analyzed using Flow CAST® high sensitivity Basophil Activation Test (BAT). Briefly, stimulation buffer (100 μL, background) or anti-FcεER antibody (100 μL) or fMLP (100 μL) or OTL78 (75 μM in 100 μL of saline) was added to tubes containing stimulation buffer (200 μL). 100 μL of blood was added to each tube and mixed gently. After adding staining reagent (40 μL) containing anti-CD63-CD203c-PE-DY647 and anti-CCR3-PE, each tube was mixed gently and incubated for 15 minutes at 37° C. Lysing reagent (2 mL) was added to each tube, mixed gently, incubated for 5-10 minutes at room temperature, and centrifuged for 5 minutes at 500×g. The supernatant was discarded and the cells were re-suspended in wash buffer (900 μL) and analyzed using flow cytometry. CD63-CD203c-PE-DY647+/CCR3-PE+ cell population considered as the activated basophils.

[4] = tested on: 22Rv1 tumor xenografts
Method: as §1, §2

[5] = 0.3-120 nmol/mouse tested, 2 hour time point, IVIS

## CC1(C)C(/C=C/C2=C(Oc3ccc(C[C@H](NC(=O)[C@H](Cc4ccccc4)NC(=O)CCOCCOCCNC(=O)CC[C@H](NC(=O)N[C@@H](CCC(=O)O)C(=O)O)C(=O)O)C(=O)O)cc3)C(=C/C=C3/N(CCCCS(=O)(=O)O)c4ccc(S(=O)(=O)O)cc4C3(C)C)/CCC2)=[N+](CCCCS(=O)(=O)[O-])c2ccc(S(=O)(=O)O)cc21 [OTL78]
[1]
  fluorescence intensity of PC3 tumors compared to 22Rv1 tumors: ~6 folds less
[2]
  accumulation in orthotopic prostate tumors: mainly accumulated in prostate tumors with no fluorescence observed in other tissues except kidneys
[2]; in the presence of primary tumor
  detection of local regional metastasis in seminal vesicles: able to detect
[3]; FIG. 47E, ≥2 considered positive response
  stimulated index: 1
[3]; average of 3 healthy subjects
  Percent of basophile activation, Avg: 2.8%
[3]; healthy subjects, OTL78 75 μM
  Percent of basophile activation, Subject 1: 2.64%
  Percent of basophile activation, Subject 2: 2.67%
  Percent of basophile activation, Subject 3: 3.14%
[3]; stimulation index, ≥2 considered positive response
  SI = Avg/background: 1.1
[4]; 10 nmol, 2 h
  accumulation in 22Rv1 tumors: accumulated predominantly
[4]; [5]
  dose of best TBR: 3-10 nmol/mouse
  dose range providing excellent TBR: 1-30 nmol per mouse
[4]; mouse, in vivo
  time for skin uptake to clear: 4 to 5 h
